Laboratory results taken from patent publication US20230355720A1, “PHARMACEUTICAL COMPOSITION FOR PREVENTING OR TREATING BONE DISEASES, COMPRISING TRIPLE AGONIST OR CONJUGATE THEREOF HAVING ACTIVITY WITH RESPECT TO ALL OF GLUCAGON, GLP-1 AND GLP RECEPTORS” (HANMI PHARM. CO., LTD., priority 2020, published 2023).
Bridge positions count the residues as written; N and C are the ends. Square brackets hold non-standard residues; d marks the D form. Ends that are not written are not given here. * marks the point of attachment. Acetyl(2-(4-imidazolyl)) = O=C(Cc1c[nH]cn1)*; Aib = CC(C)(N)C(=O)O

Experiments:
Assay in all cases: cell-based or functional assay
human GCG receptor = human GCG receptor (human, UniProt P47871 26-477)
Chain of human GCG receptor (P47871 26-477): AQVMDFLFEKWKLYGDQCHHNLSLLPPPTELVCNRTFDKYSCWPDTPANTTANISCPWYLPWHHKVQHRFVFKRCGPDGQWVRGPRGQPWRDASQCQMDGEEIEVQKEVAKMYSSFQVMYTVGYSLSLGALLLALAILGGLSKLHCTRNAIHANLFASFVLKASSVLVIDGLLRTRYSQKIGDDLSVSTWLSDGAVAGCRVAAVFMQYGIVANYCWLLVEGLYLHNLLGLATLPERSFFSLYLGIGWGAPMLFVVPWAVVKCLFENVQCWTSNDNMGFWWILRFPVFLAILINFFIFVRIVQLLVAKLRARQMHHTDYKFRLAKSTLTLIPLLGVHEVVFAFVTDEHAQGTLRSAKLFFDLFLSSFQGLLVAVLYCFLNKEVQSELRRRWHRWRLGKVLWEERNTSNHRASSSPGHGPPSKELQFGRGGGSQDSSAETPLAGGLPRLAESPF

human GIP receptor = molecular target: T1, human GIP receptor (human, UniProt P48546 22-466)
T1 sequence (looked up): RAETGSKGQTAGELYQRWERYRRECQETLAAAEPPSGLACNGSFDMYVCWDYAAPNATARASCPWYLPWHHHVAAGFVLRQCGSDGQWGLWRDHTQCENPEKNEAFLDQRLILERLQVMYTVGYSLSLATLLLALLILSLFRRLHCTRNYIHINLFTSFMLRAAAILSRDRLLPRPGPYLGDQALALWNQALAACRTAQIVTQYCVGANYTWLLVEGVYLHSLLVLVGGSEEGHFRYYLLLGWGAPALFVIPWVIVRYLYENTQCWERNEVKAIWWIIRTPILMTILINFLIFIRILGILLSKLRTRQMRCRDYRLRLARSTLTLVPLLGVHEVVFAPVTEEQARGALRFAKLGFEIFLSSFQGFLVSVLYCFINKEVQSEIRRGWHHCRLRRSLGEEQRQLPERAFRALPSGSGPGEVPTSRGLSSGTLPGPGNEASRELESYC

human GLP-1 receptor = human GLP-1 receptor (human, UniProt P43220 24-463)

In the case of Y[Aib]QGTFTSDYSKYLDEKRAKEFVQWLLDCHPSSGQPPPS (bridge 16-20) [triple agonist of SEQ ID NO: 97], the “In vitro activity (%) compared with native peptide, vs Glucagon” value (from here on “In vitro activity (%) … vs Glucagon”) (human GCG receptor) is reported as 62.8%, the “In vitro activity (%) compared with native peptide, vs GIP” value (shortened to “In vitro activity (%) … vs GIP”) (human GIP receptor) is reported as 2.6% and the “In vitro activity (%) compared with native peptide, vs GLP-1” value (shortened to “In vitro activity (%) … vs GLP-1”) (human GLP-1 receptor) is reported as 10.5%.

B1: triple agonist of SEQ ID NO: 86 (peptide)
peptide: {Acetyl(2-(4-imidazolyl))}-[Aib]QGTFTSDYSKYLDEKRQKEFVNWLLAQC
modifications: bridge 15-19; numbers in words are those of the source; also: ring between positions 16 and 20, type not given here
For B1, the “In vitro activity (%) … vs Glucagon” value (human GCG receptor) was 0.4%, the “In vitro activity (%) … vs GIP” value (human GIP receptor) was 0.2% and the “In vitro activity (%) … vs GLP-1” value (human GLP-1 receptor) was 28.4%.

In the case of [Acetyl(2-(4-imidazolyl))][Aib]EGTFTSDYSIAMDEIHQKDFVNWLLAQKC (bridge 16-20; not fully specified) [triple agonist of SEQ ID NO: 90], the “In vitro activity (%) … vs Glucagon” value (human GCG receptor) is reported as under 0.1%, the “In vitro activity (%) … vs GIP” value (human GIP receptor) is reported as under 0.1% and the “In vitro activity (%) … vs GLP-1” value (human GLP-1 receptor) is reported as 7.4%.

For H[Aib]QGTFTSDVSKYLDGQAAQEFVAWLLAGGGPSSGAPPPSC (not fully specified) [triple agonist of SEQ ID NO: 10], the “In vitro activity (%) … vs Glucagon” value (human GCG receptor) was under 0.1%, the “In vitro activity (%) … vs GIP” value (human GIP receptor) was under 0.1% and the “In vitro activity (%) … vs GLP-1” value (human GLP-1 receptor) was 46%.

Y[Aib]QGTFTSDYSKALDEKAAKEFVQWLLDQHPSSGQPPPSC (bridge 16-20) [triple agonist of SEQ ID NO: 100] was tested, and the “In vitro activity (%) … vs Glucagon” value (human GCG receptor) was 12.7%, the “In vitro activity (%) … vs GIP” value (human GIP receptor) was 118% and the “In vitro activity (%) … vs GLP-1” value (human GLP-1 receptor) was 42.2%.

Y[Aib]QGTFTSDYSKYLDEKRAKEFVQWLLDHCPSSGQPPPS (bridge 16-20) [triple agonist of SEQ ID NO: 96] was tested, and the “In vitro activity (%) … vs Glucagon” value (human GCG receptor) was 195%, the “In vitro activity (%) … vs GIP” value (human GIP receptor) was 5.2% and the “In vitro activity (%) … vs GLP-1” value (human GLP-1 receptor) was 34.4%.

In the case of Y[Aib]QGTFTSDYSKALDEKAAKEFVNWLLDQHPSSGQPPPSC (bridge 16-20) [triple agonist of SEQ ID NO: 101], the “In vitro activity (%) … vs Glucagon” value (human GCG receptor) is reported as 13.9%, the “In vitro activity (%) … vs GIP” value (human GIP receptor) is reported as 40.1% and the “In vitro activity (%) … vs GLP-1” value (human GLP-1 receptor) is reported as 23.2%.

With H[Aib]QGTFTSDVSKYLDGQAAQEFVAWLLAGC [triple agonist of SEQ ID NO: 9] the “In vitro activity (%) … vs Glucagon” value (human GCG receptor) was 0.13%, the “In vitro activity (%) … vs GIP” value (human GIP receptor) was under 0.1% and the “In vitro activity (%) … vs GLP-1” value (human GLP-1 receptor) was 32.1%.

[Acetyl(2-(4-imidazolyl))][Aib]QGTFTSDYSIAMDEIHQKDFVNWLLAQKC (bridge 16-20; not fully specified) [triple agonist of SEQ ID NO: 92] was tested, and the “In vitro activity (%) … vs Glucagon” value (human GCG receptor) was under 0.1%, the “In vitro activity (%) … vs GIP” value (human GIP receptor) was 0.4% and the “In vitro activity (%) … vs GLP-1” value (human GLP-1 receptor) was 0.8%.

For Y[Aib]QGTFTSDYSKALDEKAAKDFVNWLLDHHPSSGQPPPSC (bridge 16-20) [triple agonist of SEQ ID NO: 99], the “In vitro activity (%) … vs Glucagon” value (human GCG receptor) was 14.9%, the “In vitro activity (%) … vs GIP” value (human GIP receptor) was 57.7% and the “In vitro activity (%) … vs GLP-1” value (human GLP-1 receptor) was 20.9%.

For [Acetyl(2-(4-imidazolyl))][Aib]QGTFTSDYSIAMDEIHQKDFVNWLLAQC (bridge 16-20; not fully specified) [triple agonist of SEQ ID NO: 85], the “In vitro activity (%) … vs Glucagon” value (human GCG receptor) was under 0.1%, the “In vitro activity (%) … vs GIP” value (human GIP receptor) was 0.3% and the “In vitro activity (%) … vs GLP-1” value (human GLP-1 receptor) was 4.3%.

Y[Aib]QGTFTSDYSKALDEKAAKEFVNWLLDHHPSSGQPPPSC (bridge 16-20) [triple agonist of SEQ ID NO: 98] was tested, and the “In vitro activity (%) … vs Glucagon” value (human GCG receptor) was 8.2%, the “In vitro activity (%) … vs GIP” value (human GIP receptor) was 47.1% and the “In vitro activity (%) … vs GLP-1” value (human GLP-1 receptor) was 28.1%.

B2: triple agonist of SEQ ID NO: 87 (peptide)
peptide: {Acetyl(2-(4-imidazolyl))}-[Aib]QGTFTSDYSIAMDEIHQKDFVNWLLNTC
modifications: bridge 15-19; numbers in words are those of the source; also: ring between positions 16 and 20, type not given here
B2 was tested, and the “In vitro activity (%) … vs Glucagon” value (human GCG receptor) was under 0.1%, the “In vitro activity (%) … vs GIP” value (human GIP receptor) was under 0.1% and the “In vitro activity (%) … vs GLP-1” value (human GLP-1 receptor) was 0.9%.

With Y[Aib]QGTFTSDYSKALDEKAAKDFVNWLLDQHPSSGQPPPSC (bridge 16-20) [triple agonist of SEQ ID NO: 102] the “In vitro activity (%) … vs Glucagon” value (human GCG receptor) was 29.5%, the “In vitro activity (%) … vs GIP” value (human GIP receptor) was 58% and the “In vitro activity (%) … vs GLP-1” value (human GLP-1 receptor) was 23.3%.

B3: triple agonist of SEQ ID NO: 93 (peptide)
peptide: {Acetyl(2-(4-imidazolyl))}-[Aib]QGTFTSDYSKYLDEKRQKEFVNWLLAQKC
modifications: bridge 15-19; numbers in words are those of the source; also: ring between positions 16 and 20, type not given here
With B3 the “In vitro activity (%) … vs Glucagon” value (human GCG receptor) was 0.3%, the “In vitro activity (%) … vs GIP” value (human GIP receptor) was 0.7% and the “In vitro activity (%) … vs GLP-1” value (human GLP-1 receptor) was 5.7%.

In the case of [Acetyl(2-(4-imidazolyl))]GEGTFTSDLSKYLDSRRQQLFVQWLKAGGPSSGAPPPSHG (not fully specified) [triple agonist of SEQ ID NO: 11], the “In vitro activity (%) … vs Glucagon” value (human GCG receptor) is reported as under 0.1%, the “In vitro activity (%) … vs GIP” value (human GIP receptor) is reported as under 0.1% and the “In vitro activity (%) … vs GLP-1” value (human GLP-1 receptor) is reported as 1.4%.

B4: triple agonist of SEQ ID NO: 94 (peptide)
peptide: {Acetyl(2-(4-imidazolyl))}-[Aib]QGTFTSDYSIAMDEIHQKDFVNWLLNTKC
modifications: bridge 15-19; numbers in words are those of the source; also: ring between positions 16 and 20, type not given here
In the case of B4, the “In vitro activity (%) … vs Glucagon” value (human GCG receptor) is reported as under 0.1%, the “In vitro activity (%) … vs GIP” value (human GIP receptor) is reported as under 0.1% and the “In vitro activity (%) … vs GLP-1” value (human GLP-1 receptor) is reported as 0.5%.

B5: triple agonist of SEQ ID NO: 89 (peptide)
peptide: {Acetyl(2-(4-imidazolyl))}-[Aib]QGTFTSDYSKYLDEKRQKEFVQWLLDTKC
modifications: bridge 15-19; numbers in words are those of the source; also: ring between positions 16 and 20, type not given here
In the case of B5, the “In vitro activity (%) … vs Glucagon” value (human GCG receptor) is reported as 0.7%, the “In vitro activity (%) … vs GIP” value (human GIP receptor) is reported as under 0.1% and the “In vitro activity (%) … vs GLP-1” value (human GLP-1 receptor) is reported as 7.1%.

In the case of [Acetyl(2-(4-imidazolyl))]GEGTFISDYSIQLDEIAVQDFVEWLLAQKPSSGAPPPSHG [triple agonist of SEQ ID NO: 13], the “In vitro activity (%) … vs Glucagon” value (human GCG receptor) is reported as under 0.1%, the “In vitro activity (%) … vs GIP” value (human GIP receptor) is reported as under 0.1% and the “In vitro activity (%) … vs GLP-1” value (human GLP-1 receptor) is reported as under 0.1%.

For [Acetyl(2-(4-imidazolyl))]GEGTFISDLSKYMDEQAVQLFVEWLMAGGPSSGAPPPSHG (not fully specified) [triple agonist of SEQ ID NO: 12], the “In vitro activity (%) … vs Glucagon” value (human GCG receptor) was under 0.1%, the “In vitro activity (%) … vs GIP” value (human GIP receptor) was under 0.1% and the “In vitro activity (%) … vs GLP-1” value (human GLP-1 receptor) was 0.4%.

B6: triple agonist of SEQ ID NO: 91 (peptide)
peptide: {Acetyl(2-(4-imidazolyl))}-[Aib]EGTFTSDYSIAMDEIHQKDFVDWLLAEKC
modifications: bridge 15-19; numbers in words are those of the source; also: ring between positions 16 and 20, type not given here
B6 was tested, and the “In vitro activity (%) … vs Glucagon” value (human GCG receptor) was 16.8%, the “In vitro activity (%) … vs GIP” value (human GIP receptor) was 0.3% and the “In vitro activity (%) … vs GLP-1” value (human GLP-1 receptor) was 31.9%.

Y[Aib]QGTFTSDYSKYLDEKRAKEFVQWLLCHHPSSGQPPPS (bridge 16-20) [triple agonist of SEQ ID NO: 95] was tested, and the “In vitro activity (%) … vs Glucagon” value (human GCG receptor) was 0.4%, the “In vitro activity (%) … vs GIP” value (human GIP receptor) was under 0.1% and the “In vitro activity (%) … vs GLP-1” value (human GLP-1 receptor) was 2.1%.

B7: triple agonist of SEQ ID NO: 88 (peptide)
peptide: {Acetyl(2-(4-imidazolyl))}-[Aib]QGTFTSDYSKYLDEKRQKEFVQWLLNTKC
modifications: bridge 15-19; numbers in words are those of the source; also: ring between positions 16 and 20, type not given here
B7 was tested, and the “In vitro activity (%) … vs Glucagon” value (human GCG receptor) was 0.3%, the “In vitro activity (%) … vs GIP” value (human GIP receptor) was under 0.1% and the “In vitro activity (%) … vs GLP-1” value (human GLP-1 receptor) was 9.6%.

B8: triple agonist of SEQ ID NO: 84 (peptide)
peptide: {Acetyl(2-(4-imidazolyl))}-[Aib]EGTFTSDYSIAMDEIHQKDFVDWLLAEC
modifications: bridge 15-19; numbers in words are those of the source; also: ring between positions 16 and 20, type not given here
For B8, the “In vitro activity (%) … vs Glucagon” value (human GCG receptor) was under 0.1%, the “In vitro activity (%) … vs GIP” value (human GIP receptor) was under 0.1% and the “In vitro activity (%) … vs GLP-1” value (human GLP-1 receptor) was 4.2%.
